Results: patent publication US20090042805

Tests used:
[1] = biological target: T1, Ac-VDVAD-cho
T1 chain: VDVAD

[2] = biological target: SEQ8
[3] = biological target: T2, Z-VDVAD-FMK
T2 chain: VDVAD

B1: Human recombinant caspase-2 (protein)
chain: GPVCLQVKPCTPEFYQTHFQLAYRLQSRPRGLALVLSNVHFTGEKELEFRSGGDVDHSTLVTLFKLLGYDVHVLCDQTAQEMQEKLQNFAQLPAHRVTDSCIVALLSHGVEGAIYGVDGKLLQLQEVFQLFDNANCPSLQNKPKMFFIQACRGDETDRGVDQQDGKNHAGSPGCEESDAGKEKLPKMRLPTRSDMICGYACLKGTAAMRNTKRGSWYIEALAQVFSERACDMHVADMLVKVNALIKDREGYAPGTEFHRCKEMSEYCSTLCRHLYLFPGHPPT
Q: How did the “in vitro VDVAD-AMC cleavage by recombinant caspase-2” value (from here on “in vitro VDVAD-AMC cleavage”) [1] turn out when B1 was run?
A: as efficiently as commercially available caspase-2 reversible (Ac-VDVAD-Cho) or irreversible (Z-VDVAD-FMK) inhibitors

Q: And the “in vitro VDVAD-AMC cleavage” value [2]?
A: is blocked by SEQ8

Q: And the “in vitro VDVAD-AMC cleavage” value [3]?
A: as efficiently as commercially available caspase-2 reversible (Ac-VDVAD-Cho) or irreversible (Z-VDVAD-FMK) inhibitors
